This assay addresses p62 WT-AIM peptide (human). In words: native MS; ESI-MS competition binding under nondenaturing conditions: each hATG8 titrated into an equimolar mixture of WT-AIM and L341V-AIM peptides (each 10 μM); read-out is the ratio of peak intensities of unbound WT and L341V peptides; ratios given for 20 μM hATG8; two independent experiments.

GABARAPL1, sequence (Q9H0R8 whole entry): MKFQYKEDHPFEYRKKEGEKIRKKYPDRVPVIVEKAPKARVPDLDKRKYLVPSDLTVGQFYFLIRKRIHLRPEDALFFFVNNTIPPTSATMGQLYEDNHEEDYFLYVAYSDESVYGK

For the substance “GABARAPL1 (from UniProt Q9H0R8 1-117) (natural protein)”, the ratio of unbound WT:L341V AIM peptides at 20 μM hATG8 (reference: L341V-AIM) worked out at 0.5.

Values taken from publication PMC8762078, “An ALS-associated variant of the autophagy receptor SQSTM1/p62 reprograms binding selectivity toward the autophagy-related hATG8 proteins” (The Journal of Biological Chemistry, 2021).
